# Experimental data reported in paper PMC5011719, “The amyloid fold of Gad m 1 epitopes governs IgE binding” (Scientific Reports, 2016).
# Molecular target: the molecule itself
# Test: AFM + dynamic light scattering; fibril dimensions from AFM images (2 nm height, 15 nm diameter, average length 350 nm) and the RH of the monomer from DLS; geometrical calculation
protein,measurement,value
"rGad m 1 wt (recombinant Gad m 1, Atlantic cod beta-parvalbumin) (natural protein, UniProt A5I874 1-109, looked up, Gad m 1, Atlantic cod beta-parvalbumin; synthetic ORF in pET15b; Monomer in Ca2+, forms amyloids in EDTA; also called rGad wt; not shown: 6XHis, N-terminal, kept) MAFAGILNDADITAALAACKAEGSFDHKAFFTKVGLAAKSSADIKKVFEIIDQDKSDFVEEDELKLFLQNFSAGARALSDAETKVFLKAGDSDGDGKIGVDEFGAMIKA",stoichiometry N,370
